Results published in FireProtDB (doi:10.1021/bi00173a036).

Details: Bos taurus, Thermal, DSC, reversible: yes, whole UniProt chain shown

B1: Alpha-lactalbumin wild type, P00711 (protein)
chain: MMSFVSLLLVGILFHATQAEQLTKCEVFRELKDLKGYGGVSLPEWVCTTFHTSGYDTQAIVQNNDSTEYGLFQINNKIWCKDDQNPHSSNICNISCDKFLDDDLTDDIMCVKKILDKVGINYWLAHKALCSEKLDQWLCEKL
pH 3, 44.3 °C, acetate 10 mM
  heat capacity change of unfolding: 1.3 kcal/mol/K
  unfolding enthalpy (calorimetric): 25.6 kcal/mol
pH 3.2, 29.8 °C, acetate 10 mM
  heat capacity change of unfolding: 1.5 kcal/mol/K
  unfolding enthalpy (calorimetric): 21.4 kcal/mol
pH 3.2, acetate 10 mM
  Tm: 29.8 °C
  heat capacity change of unfolding: 0.92 kcal/mol/K
  unfolding enthalpy (calorimetric): 36.1 kcal/mol
  unfolding enthalpy (van 't Hoff): 43.5 kcal/mol
pH 3.5, 41 °C, acetate 10 mM
  heat capacity change of unfolding: 1.6 kcal/mol/K
  unfolding enthalpy (calorimetric): 13.1 kcal/mol
pH 3.5, acetate 10 mM
  Tm: 41 °C
  heat capacity change of unfolding: 1.19 kcal/mol/K
  unfolding enthalpy (calorimetric): 47.8 kcal/mol
  unfolding enthalpy (van 't Hoff): 51.4 kcal/mol
pH 4.2, 57 °C, acetate 10 mM
  heat capacity change of unfolding: 1.7 kcal/mol/K
  unfolding enthalpy (calorimetric): 2.72 kcal/mol
pH 4.2, acetate 10 mM
  Tm: 57 °C
  heat capacity change of unfolding: 1.61 kcal/mol/K
  unfolding enthalpy (calorimetric): 64.8 kcal/mol
  unfolding enthalpy (van 't Hoff): 59.8 kcal/mol
pH 8, Tris-HCl 5 mM
  Tm: 64.3 °C
  heat capacity change of unfolding: 1.7 kcal/mol/K
  unfolding enthalpy (calorimetric): 70.6 kcal/mol
  unfolding enthalpy (van 't Hoff): 69.1 kcal/mol
